Source: patent US20250000936A1, “TREATMENT OF GEOGRAPHIC ATROPHY” (Apellis Pharmaceuticals, Inc., priority 2021, published 2025)
“And” between values parts separate entries of the source, which are not always exact repeats. Equal values may be shown once. Read-outs that look alike come from different tables or passages of the source.

How the values were obtained:
patients with GA = settings: FILLY, month 12, cited from earlier work
[1] = system: patients with geographic atrophy (GA) secondary to age-related macular degeneration (AMD); assay: OAKS Phase 3 study: safety
Procedure: All randomized subjects returned every month to the clinical site for assessments and additional pegcetacoplan or sham injections according to their randomization scheme until Month 12. From Month 12 onwards, subjects return to the clinical site based on their randomized treatment schedule (monthly or EOM) and follow the treatment regimen and assessments outlined in the Visit Schedule until Month 24. Safety was assessed throughout the study by a number of evaluations including: monitoring of AEs, preinjection and postinjection monitoring, blood and urine samples collected, physical examination, vital signs, and follow-up phone calls. Blood samples were also be collected for anti-therapeutic antibodies, genotyping, and clinical repository (if the subject consented to this portion).
The Safety set consisted of all subjects randomized who received at least one injection of pegcetacoplan or sham. Subjects were analyzed according to the actual treatment received. […] This population was used for all safety analyses.

[2] = PEOM (every other month), 12 months
[3] = PEOM (every other month), 18 months
[4] = PEOM (every other month), N=212

Poly(oxy-1,2-ethanediyl), α-hydro-ω-hydroxy-, 15,15′-diester with N-acetyl-L-isoleucyl-L-cysteinyl-L-valyl-1-methyl-L-tryptophyl-L-glutaminyl-L-α-aspartyl-L-tryptophylglycyl-L-alanyl-L-histidyl-L-arginyl-L-cysteinyl-L-threonyl-2-[2-(2-aminoethoxy) ethoxy]acetyl-N^6-carboxy-L-lysinamide cyclic (2->12)-(disulfide) [pegcetacoplan]
reduction in change from baseline in square root GA lesion size vs sham (patients with GA; every other month, p=0.067): 20%
reduction in change from baseline in square root GA lesion size vs sham (patients with GA; monthly, p=0.008): 29%
All TEAEs, Total events, M [1, 2]: 721
All TEAEs, patients [1, 2]: 160 (75.5%) n (%)
Cases of MNV (FA) detected by reading center but not reported by Investigator as AE [1, 2]: 3
Non-ocular TEAEs, Patients [1, 2]: 127 (59 9%) n (%)
Non-ocular TEAEs, events M [1, 2]: 412
Ocular TEAE in study eye Conjunctival haemorrhage, events M [1, 2]: 16
Ocular TEAE in study eye Conjunctival haemorrhage, patients [1, 2]: 13 (6.1%) n (%)
Ocular TEAE in study eye Eye Pain, events M [1, 2]: 14
Ocular TEAE in study eye Eye Pain, patients [1, 2]: 12 (5.7%) n (%)
Ocular TEAE in study eye Vitreous floaters, events M [1, 2]: 20
Ocular TEAE in study eye Vitreous floaters, patients [1, 2]: 15 (7.1%) n (%)
Ocular TEAEs in study eye, Patients [1, 2]: 97 (45.8%) n (%) and 97 (45.8) n (%)
Ocular TEAEs in study eye, events M [1, 2]: 208
Serious ocular TEAE Endophthalmitis, events M [1, 2]: 3
Serious ocular TEAE Endophthalmitis, patients [1, 2]: 3 (1.4%) n (%)
Serious ocular TEAE Macular hole, patients [1, 2]: 0 n (%)
Serious ocular TEAE Optic ischemic neuropathy, patients [1, 2]: 0 n (%)
Serious ocular TEAE Papilledema, patients [1, 2]: 0 n (%)
Serious ocular TEAE Retinal detachment, events M [1, 2]: 1
Serious ocular TEAE Retinal detachment, patients [1, 2]: 1 (0.5%) n (%)
Serious ocular TEAEs in the study eye, events M [1, 2]: 4
Serious ocular TEAEs in the study eye, patients [1, 2]: 4 (1.9%) n (%)
Sum of investigator-determined eAMD and reading center cases not reported by investigators [1, 2]: (6.1%)
Sum of investigator-determined eAMD and reading center cases not reported by investigators ([1]; PEOM (every other month), 12 months, count): 13
All TEAEs, Total events, M [1, 3]: 965
All TEAEs, patients [1, 3]: 177 (83.5%) n (%)
Non-ocular TEAEs, M [1, 3]: 567
Non-ocular TEAEs, Patients [1, 3]: 158 (74.5%) n (%)
Ocular TEAEs in study eye, M [1, 3]: 270
Ocular TEAEs in study eye, Patients [1, 3]: 114 (53.8%) n (%)
Discontinued study prior to Month 12, reason Adverse Event [1, 4]: 5 (2.4%) n (%)
Discontinued study prior to Month 12, reason Death [1, 4]: 3 (1.4%) n (%)
Discontinued study prior to Month 18, reason Adverse event [1, 4]: 4 (1.9%) n (%)
Discontinued study prior to Month 18, reason Death [1, 4]: 7 (3.3%) n (%)
Patients with new onset fellow eye eAMD ([1]; PEOM (every other month), through 18 months, 173 patients without baseline fellow eye CNV): 5 (2.9%) n (%)
All TEAEs, Total events, M ([1]; PM (monthly), 12 months): 751
All TEAEs, patients ([1]; PM (monthly), 12 months): 170 (79.8%) n (%)
Cases of MNV (FA) detected by reading center but not reported by Investigator as AE ([1]; PM (monthly), 12 months): 2
Non-ocular TEAEs, Patients ([1]; PM (monthly), 12 months): 136 (63.8%) n (%)
Non-ocular TEAEs, events M ([1]; PM (monthly), 12 months): 390
Ocular TEAE in study eye Conjunctival haemorrhage, events M ([1]; PM (monthly), 12 months): 30
Ocular TEAE in study eye Conjunctival haemorrhage, patients ([1]; PM (monthly), 12 months): 18 (8.5%) n (%)
Ocular TEAE in study eye Eye Pain, events M ([1]; PM (monthly), 12 months): 17
Ocular TEAE in study eye Eye Pain, patients ([1]; PM (monthly), 12 months): 15 (7.0%) n (%)
Ocular TEAE in study eye Vitreous floaters, events M ([1]; PM (monthly), 12 months): 10
Ocular TEAE in study eye Vitreous floaters, patients ([1]; PM (monthly), 12 months): 9 (4.2%) n (%)
Ocular TEAEs in study eye, Patients ([1]; PM (monthly), 12 months): 108 (50.7%) n (%)
Ocular TEAEs in study eye, events M ([1]; PM (monthly), 12 months): 256
Serious ocular TEAE Dry AMD, patients ([1]; PM (monthly), 12 months): 0 n (%)
Serious ocular TEAE Endophthalmitis, events M ([1]; PM (monthly), 12 months): 3
Serious ocular TEAE Endophthalmitis, patients ([1]; PM (monthly), 12 months): 1 (0.5%) n (%)
Serious ocular TEAE Macular hole, patients ([1]; PM (monthly), 12 months): 0 n (%)
Serious ocular TEAE Optic ischemic neuropathy, events M ([1]; PM (monthly), 12 months): 3
Serious ocular TEAE Optic ischemic neuropathy, patients ([1]; PM (monthly), 12 months): 1 (0.5%) n (%)
Serious ocular TEAE Papilledema, events M ([1]; PM (monthly), 12 months): 3
Serious ocular TEAE Papilledema, patients ([1]; PM (monthly), 12 months): 1 (0.5%) n (%)
Serious ocular TEAE Retinal detachment, patients ([1]; PM (monthly), 12 months): 0 n (%)
Serious ocular TEAE Vitritis, patients ([1]; PM (monthly), 12 months): 0 n (%)
Serious ocular TEAEs in the study eye, events M ([1]; PM (monthly), 12 months): 3
Serious ocular TEAEs in the study eye, patients ([1]; PM (monthly), 12 months): 3 (1.4%) n (%)
Sum of investigator-determined eAMD and reading center cases not reported by investigators ([1]; PM (monthly), 12 months): (6.1%)
Sum of investigator-determined eAMD and reading center cases not reported by investigators ([1]; PM (monthly), 12 months, count): 13
All TEAEs, Total events, M ([1]; PM (monthly), 18 months): 1037
All TEAEs, patients ([1]; PM (monthly), 18 months): 185 (86.9%) n (%)
Non-ocular TEAEs, M ([1]; PM (monthly), 18 months): 573
Non-ocular TEAEs, Patients ([1]; PM (monthly), 18 months): 152 (71.4%) n (%)
Ocular TEAEs in study eye, M ([1]; PM (monthly), 18 months): 325
Ocular TEAEs in study eye, Patients ([1]; PM (monthly), 18 months): 126 (59.2%) n (%)
